Measurements: patent US20260242478A1 (published 2026)

Key:
006 PSMA Fab [1] = molecular target: T1, 006 PSMA Fab; assay: phage ELISA; biotinylated PSMA Fab on neutravidin plate, wells pre-incubated with PSMA antigen as competitor, anti-M13-HRP detection
T1 construct: also called Anti-PSMA Fab
Description: (§1) Clonal phage were harvested as crude supernatants and screened via standard ELISAs. […] Prior to the addition of clonal phage. wells were incubated with blocking buffer and PSMA antigen or blocking buffer alone. Without washing or aspirating, clonal phage supernatants were then added to the wells and incubated for a short time. Wells were then washed followed by detection of bound phage using a horse radish conjugated anti-M13 antibody.

006 PSMA Fab [2] = molecular target: T1, 006 PSMA Fab; assay: phage ELISA; biotinylated PSMA Fab on neutravidin plate, blocking buffer alone, anti-M13-HRP detection
Description: as §1

PSMA Fab (006 PSMA Fab) [3] = molecular target: T2, PSMA Fab (006 PSMA Fab); assay: phage ELISA; clonal phage on plate-captured PSMA Fab pre-incubated with PSMA antigen as competitor, anti-M13 HRP detection
T2 construct: also called Anti-PSMA Fab; anti-PSMA Fab
Description: as §1

PSMA Fab (006 PSMA Fab) [4] = molecular target: T2, PSMA Fab (006 PSMA Fab); assay: phage ELISA; clonal phage supernatant on biotinylated PSMA Fab captured on neutravidin plate, anti-M13 HRP detection
Description: as §1

PSMA Fab [5] = molecular target: T3, PSMA Fab; assay: clonal phage ELISA on captured PSMA Fab, wells pre-incubated with PSMA antigen as competitor, anti-M13-HRP detection;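 further: crude clonal phage supernatants added without washing after the PSMA preincubation, comparison wells received blocking buffer alone without PSMA, bound phage read after washing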
T3 construct: Biotinylated and captured on neutravidin plates in the phage ELISA; also called anti-PSMA Fab; 006 PSMA Fab
Description: as §1

PSMA Fab [6] = molecular target: T3, PSMA Fab; assay: clonal phage ELISA on biotinylated PSMA Fab captured on neutravidin plates, anti-M13-HRP detection, no PSMA antigen
Description: as §1

Anti-PSMA Fab [7] = molecular target: T4, Anti-PSMA Fab; assay: phage ELISA; PSMA Fab on plate pre-incubated with PSMA antigen (competitor), anti-M13-HRP detection
T4 construct: Biotinylated and captured on neutravidin coated plates in the panning ELISA; also called 006 PSMA Fab
Description: as §1

Anti-PSMA Fab [8] = molecular target: T4, Anti-PSMA Fab; assay: phage ELISA; biotinylated PSMA Fab on neutravidin plate, clonal phage supernatant, anti-M13-HRP detection;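 further: wells were preincubated with blocking buffer containing PSMA antigen or with blocking buffer only, then phage supernatant was added without washing for a brief incubation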
Description: as §1

Row | Binder | phage binding ELISA signal in presence of PSMA (PSMA Fab [5]) | phage binding ELISA signal (PSMA Fab [6]) | Phage binding ELISA signal, Anti-PSMA Fab in presence of PSMA (Anti-PSMA Fab [7]) | Phage binding ELISA signal, Anti-PSMA Fab (Anti-PSMA Fab [8]) | further results
1 | QEVYCKPAWMCDGF (tested as crude clonal phage supernatant) [Phage-2890] |  |  |  |  | Phage binding ELISA signal, Anti-PSMA Fab in presence of PSMA antigen (006 PSMA Fab [1]): 0.104; Phage binding ELISA signal, Anti-PSMA Fab (006 PSMA Fab [2]): 2.36
2 | VPKMCTPPWMCWGF (tested as crude phage supernatant) [Phage-2923] |  |  |  |  | Phage binding ELISA signal, Anti-PSMA Fab with PSMA antigen (PSMA Fab (006 PSMA Fab) [3]): 0.0934; Phage binding ELISA signal, Anti-PSMA Fab (PSMA Fab (006 PSMA Fab) [4]): 2.31
3 | HDKLCRPAWMCNGF [Phage-2897] | 0.107 | 2.35 |  |  | 
4 | EFMRCTPPWMCLGF (tested as crude clonal phage supernatant) [Phage-2884] |  |  |  |  | Phage binding ELISA signal, Anti-PSMA Fab in presence of PSMA antigen (006 PSMA Fab [1]): 0.12; Phage binding ELISA signal, Anti-PSMA Fab (006 PSMA Fab [2]): 2.37
5 | VSKVCKPAWMCEGL (tested as crude clonal phage supernatant) [Phage-2888] |  |  |  |  | Phage binding ELISA signal, Anti-PSMA Fab in presence of PSMA antigen (006 PSMA Fab [1]): 0.104; Phage binding ELISA signal, Anti-PSMA Fab (006 PSMA Fab [2]): 2.36
6 | PWLMCKPAWMCTGF [Phage-2900] | 0.183 | 2.34 |  |  | 
7 | NPPYCVPAWMCAGF (tested as crude clonal phage supernatant) [Phage-2885] |  |  |  |  | Phage binding ELISA signal, Anti-PSMA Fab in presence of PSMA antigen (006 PSMA Fab [1]): 0.0765; Phage binding ELISA signal, Anti-PSMA Fab (006 PSMA Fab [2]): 2.37
8 | DGIKCVPRWMCDGF (tested as crude clonal phage supernatant) [Phage-2886] |  |  |  |  | Phage binding ELISA signal, Anti-PSMA Fab in presence of PSMA antigen (006 PSMA Fab [1]): 0.146; Phage binding ELISA signal, Anti-PSMA Fab (006 PSMA Fab [2]): 2.36
9 | AVHYCQPSWMCTGF (also called peptide-180 library clone) [Phage-2912] |  |  | 0.0814 | 2.33 | 
10 | VLKMCEPLWMCVGF [Phage-2894] | 0.117 | 2.35 |  |  | 
11 | IERMCRPAWMCDGF [Phage-2896] | 0.188 | 2.35 |  |  | 
12 | GEPVCKPAWMCEGF (also called peptide-180 library clone) [Phage-2909] |  |  | 0.128 | 2.33 | 
13 | AVPLCMPKWMCTGF (also called peptide-180 library clone) [Phage-2910] |  |  | 0.0971 | 2.33 | 
14 | GERWCTPPWMCVGL (also called peptide-180 library clone) [Phage-2913] |  |  | 0.116 | 2.32 | 
15 | VDRMCKPTWMCEGF (tested as crude phage supernatant) [Phage-2926] |  |  |  |  | Phage binding ELISA signal, Anti-PSMA Fab with PSMA antigen (PSMA Fab (006 PSMA Fab) [3]): 0.12; Phage binding ELISA signal, Anti-PSMA Fab (PSMA Fab (006 PSMA Fab) [4]): 2.31
16 | VDPMCIPRWMCSFL (also called peptide-180 library clone) [Phage-2919] |  |  | 0.0867 | 2.32 | 
17 | VDRMCVPKWMCEGL (also called peptide-180 library clone) [Phage-2916] |  |  | 0.0971 | 2.32 | 
18 | ALPQCVPAWMCLGF [Phage-2893] | 0.0796 | 2.35 |  |  | 
19 | LPRICVPEWMCLGF (also called peptide-180 library clone) [Phage-2918] |  |  | 0.0919 | 2.32 | 
20 | NWPVCKPMWMCTGF [Phage-2898] | 0.155 | 2.34 |  |  | 
21 | QTVMCRPAWMCVGF [Phage-2902] | 0.092 | 2.34 |  |  | 
22 | LGLACIPEWMCVGF (also called peptide-180 library clone) [Phage-2908] |  |  | 0.0789 | 2.33 | 
